According to patent publication US20210269512A1 (NOVOBIND LIVESTOCK THERAPEUTICS, published 2021):

T1: Cpa (phospholipase) (Clostridium perfringens, UniProt P0C216 29-398)
T1 sequence: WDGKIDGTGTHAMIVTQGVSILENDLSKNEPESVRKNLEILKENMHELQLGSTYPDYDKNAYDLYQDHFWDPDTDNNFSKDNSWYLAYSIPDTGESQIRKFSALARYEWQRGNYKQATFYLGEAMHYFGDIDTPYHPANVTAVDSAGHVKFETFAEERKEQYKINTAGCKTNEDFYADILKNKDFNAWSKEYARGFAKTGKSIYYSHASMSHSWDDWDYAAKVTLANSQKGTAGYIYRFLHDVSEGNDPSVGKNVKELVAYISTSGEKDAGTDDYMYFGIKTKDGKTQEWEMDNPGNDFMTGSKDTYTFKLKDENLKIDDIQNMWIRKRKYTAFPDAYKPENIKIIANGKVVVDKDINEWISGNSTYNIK

B1: NBX0338 (VHH)
VHH: QVQLQESGGGLVQAGDSLRLSCATSGRSFSSYTMGWFRQTPGKEREFVAAISWSGTYYTDSVKGRFTISRDNAKNTVYLQMNSLKPEDTAVYYCAVGSRRLYYSSDINYWGQGTQVTVSS
B2: NBX0339 (VHH)
VHH: QVQLQESGGGLVQAGDSLRLSCATSGLTVSRYTMGWFRQTPGKEREFVAAISWSGTYYTDSVKGRFTISRDNAKNMVYLQMNSLKPEDTAVYYCAAGSRRLHYSSDINYWGQGTQVTVSS
B3: NBX0329 (VHH)
VHH: QVQLQESGGGLVQAGGSLRLSCATSGLTVSRYTMGWFRQTPGKDREFVAAISWSGTYYTDSVKGRFTISVDNAKNMVYLQMNSLKPEDTAVYYCAAGSRRLYYSNDINYWGQGTQVTVSS
B4: NBX0330 (VHH)
VHH: QVQLQESGGGLVQAGGSLRLSCAASSRTFSNYAMAWFRQTPGKEREFLATINGDTTFTIYADSVKGRFTISRDNAKNTLYLQMNSLKAEDTAVYYCAARQWNPTMRERDYGYWGQGTEVTVSS
B5: NBX0340 (VHH)
VHH: QVQLQESGGGLVQAGESLRLSCLAAGRTFSTSTLGWFRQAPGLEREFVAAIRYTSDYTARTTDYADSVKGRFAISRDYIKQAVYLQMNNLKPEDTAVYYCAAAKYGMGYSDPSGYTYWGQGTQVTVSS

What follows are binders tested against T1, Cpa (phospholipase) (assay: phage ELISA, coated antigen).
B1: binds. B2: binds. B3: binds. B4: binds. B5: binds.
